The numbers were not newly measured in patent US12251426B2 (priority 2020, dated 2025), which cites them from elsewhere.

B1: Bovine lactoferrin: water-soluble protein obtainable through bovine milk (protein, UniProt P24627 20-708, looked up)
Lactotransferrin: APRKNVRWCTISQPEWFKCRRWQWRMKKLGAPSITCVRRAFALECIRAIAEKKADAVTLDGGMVFEAGRDPYKLRPVAAEIYGTKESPQTHYYAVAVVKKGSNFQLDQLQGRKSCHTGLGRSAGWIIPMGILRPYLSWTESLEPLQGAVAKFFSASCVPCIDRQAYPNLCQLCKGEGENQCACSSREPYFGYSGAFKCLQDGAGDVAFVKETTVFENLPEKADRDQYELLCLNNSRAPVDAFKECHLAQVPSHAVVARSVDGKEDLIWKLLSKAQEKFGKNKSRSFQLFGSPPGQRDLLFKDSALGFLRIPSKVDSALYLGSRYLTTLKNLRETAEEVKARYTRVVWCAVGPEEQKKCQQWSQQSGQNVTCATASTTDDCIVLVLKGEADALNLDGGYIYTAGKCGLVPVLAENRKSSKHSSLDCVLRPTEGYLAVAVVKKANEGLTWNSLKDKKSCHTAVDRTAGWNIPMGLIVNQTGSCAFDEFFSQSCAPGADPKSRLCALCAGDDQGLDKCVPNSKEKYYGYTGAFRCLAEDVGDVAFVKNDTVWENTNGESTADWAKNLNREDFRLLCLDGTRKPVTEAQSCHLAVAPNHAVVSRSDRAAHVKQVLLHQQALFGKNGKNCPDKFCLFKSETKNLLFNDNTECLAKLGGRPTYEEYLGTEYVTAIANLKKCSTSPLLEACAFLTR
In the case of B1, the water solubility result was “water-soluble”.
